Results from PMC5449587 (Nucleic Acids Research, 2017).

Target: the molecule itself
Assay: crystal structure

B1: Burkholderia thailandensis deoxyribonuclease II (enzyme)
chain: MAISPRDEQNRSVDLWFAYKVPKLTKDADSDSASGYEYVYYDRQVGAVQKSPNLMNDPKGALFYTLDSVFGDPGDTTGWILYNDEMPADANRSNNATLGHTKGVIAFDIASSSALWLLHSWPKYASPSVPGVPTPLYGQTFLCLSLDLATAGKLAAQMALHQQPQVYLPRTGGLDHTSPLYALTQPLNASAPGDSDSLDFKTRGGVPFKVIAKNRKWGKDFWNDLVGPTLKADMYVETWIRGKIPPVLDSDGVHKTYDIKFIDLRKLGAPWAWPETQDHAKWGITTTDNWVCVGDINRMVTQEKRGGGTIAFQDPKLWKALCETDLIIPPPGKTDAQARAMIRKTHEPAE
  binding result: binds
